{"source": "patent US20260242721A1", "about": "“A SYNTHETIC CELLULAR ADVANCED SIGNAL ADAPTER (SCASA) SYSTEM” (Danmarks Tekniske Universitet, priority 2023, published 2026)", "molecules": {"B1": {"name": "PTDH3: constitutive Saccharomyces cerevisiae promoter, SEQ ID NO: 10, processing module (DIX28, DIX49) (nucleic acid, listed as Saccharomyces cerevisiae)", "DNA": "CTATTTTCGAGGACCTTGTCACCTTGAGCCCAAGAGAGCCAAGATTTAAATTTTCCTATGACTTGATGCAAATTCCCAAAGCTAATAACATGCAAGACACGTACGGTCAAGAAGACATATTTGACCTCTTAACAGGTTCAGACGCGACTGCCTCATCAGTAAGACCCGTTGAAAAGAACTTACCTGAAAAAAACGAATATATACTAGCGTTGAATGTTAGCGTCAACAACAAGAAGTTTAATGACGCGGAGGCCAAGGCAAAAAGATTCCTTGATTACGTAAGGGAGTTAGAATCATTTTGAATAAAAAACACGCTTTTTCAGTTCGAGTTTATCATTATCAATACTGCCATTTCAAAGAATACGTAAATAATTAATAGTAGTGATTTTCCTAACTTTATTTAGTCAAAAAATTAGCCTTTTAATTCTGCTGTAACCCGTACATGCCCAAAATAGGGGGCGGGTTACACAGAATATATAACATCGTAGGTGTCTGGGTGAACAGTTTATTCCTGGCATCCACTAAATATAATGGAGCCCGCTTTTTAAGCTGGCATCCAGAAAAAAAAAGAATCCCAGCACCAAAATATTGTTTTCTTCACCAACCATCAGTTCATAGGTCCATTCTCTTAGCGCAACTACAGAGAACAGGGGCACAAACAGGCAAAAAACGGGCACAACCTCAATGGAGTGATGCAACCTGCCTGGAGTAAATGATGACACAAGGCAATTGACCCACGCATGTATCTATCTCATTTTCTTACACCTTCTATTACCTTCTGCTCTCTCTGATTTGGAAAAAGCTGAAAAAAAAGGTTGAAACCAGTTCCCTGAAATTATTCCCCTACTTGACTAATAAGTATATAAAGACGGTAGGTATTGATTGTAATTCTGTAAATCTATTTCTTAAACTTCTTAAATTCTACTTTTATAGTTAGTCTTTTTTTTAGTTTTAAAACACCAAGAACTTAGTTTCGAATAAACACACATAAACAAACAAA"}, "B2": {"name": "PFUS1: pheromone-responsive Saccharomyces cerevisiae promoter, SEQ ID NO: 8, processing module (yEGFP strain DIX24, CD19 strain DIX45) (nucleic acid, listed as Saccharomyces cerevisiae)", "DNA": "TAATAATCAGAACTCCAACAATAGTCAACAGGGCTATAACCAATCCTATCAAAACGGTAACCAAAATAGTCAAGGTTACAATAATCAACAGTACCAAGGTGGCAACGGTGGTTACCAACAACAACAGGGACAATCTGGTGGTGCTTTTTCCTCATTGGCCTCCATGGCTCAATCTTACTTAGGTGGTGGACAAACTCAATCCAACCAACAGCAATACAATCAACAAGGCCAAAACAACCAGCAGCAATACCAGCAACAAGGCCAAAACTATCAGCATCAACAACAGGGTCAGCAGCAGCAACAAGGCCACTCCAGTTCATTCTCAGCTTTGGCTTCCATGGCAAGTTCCTACCTGGGCAATAACTCCAATTCAAATTCGAGTTATGGGGGCCAGCAACAGGCTAATGAGTATGGTAGACCGCAACAGAATGGTCAACAGCAATCCAATGAGTACGGAAGACCGCAATACGGCGGAAACCAGAACTCCAATGGACAGCACGAATCCTTCAATTTTTCTGGCAACTTTTCTCAACAGAACAATAACGGCAACCAGAACCGCTACTGAACGATGATTCAGTTCGCCTTCTATCCTTTGTTTACGTATTTGTTTATATATATAACTTTATTTTTTTTTATTAATTGGGCTGCAAGACAATTTTGTTGTCAGTGATGCCTCAATCCTTCTTTTGCTTCCATATTTACCATGTGGACCCTTTCAAAACAGAGTTGTATCTCTGCAGGATGCCCTTTTTGACGTATTGAATGGCATAATTGCACTGTCACTTTTCGCGCTGTCTCATTTTGGTGCGATGATGAAACAAACATGAAACGTCTGTAATTTGAAACAAATAACGTAATTCTCGGGATTGGTTTTATTTAAATGACAATGTAAGAGTGGCTTTGTAAGGTATGTGTTGCTCTTAAAATATTTGGATACGACATCCTTTATCTTTTTTCCTTTAAGAGCAGGATATAAGCCATCAAGTTTCTGAAAATCAAA"}}, "key": {"[1]": {"molecular_target": "T1, Saccharomyces cerevisiae α-factor pheromone receptor (Ste2) (Saccharomyces cerevisiae) (UniProt D6VTK4)", "T1 sequence": "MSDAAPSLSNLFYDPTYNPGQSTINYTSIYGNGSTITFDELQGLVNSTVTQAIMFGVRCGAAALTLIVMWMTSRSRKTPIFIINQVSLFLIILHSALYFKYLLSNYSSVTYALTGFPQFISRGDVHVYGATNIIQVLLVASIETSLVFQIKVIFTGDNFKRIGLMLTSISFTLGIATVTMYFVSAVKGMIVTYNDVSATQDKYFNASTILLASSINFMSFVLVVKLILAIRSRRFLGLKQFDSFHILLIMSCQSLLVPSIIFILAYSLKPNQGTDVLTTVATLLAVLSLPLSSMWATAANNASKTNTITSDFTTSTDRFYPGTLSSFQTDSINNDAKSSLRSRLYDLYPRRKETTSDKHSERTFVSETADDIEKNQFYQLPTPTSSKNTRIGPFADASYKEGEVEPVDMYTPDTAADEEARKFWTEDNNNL", "assay": "cell-based or functional assay"}, "[2]": {"test_system": "pheromone response pathway (PRP)", "description": "To investigate the dose-response features of the selected promoters PMFA2, PFUS1, PAGA2, PFIG.1, PMFA1, PYCL076W, PHPF1, PIME4, PCSS1, PTDH3, PPGK1 and P6XLexOLEU2 upon GPCR stimulation the strains were pre-grown in SC (24 hrs.), whereafter, for each replicate, cells were transferred to 200 μL volumes comprising a 10-fold dilution series of α-factor (0-100 μM) (GenScript) dissolved in SC+1% DMSO, and stimulated for 5 hrs. (30° C., 250 r.p.m.). Flow cytometric measurement was done to quantify yEGFP levels (B525/45-A) and PRP-regulated morphological changes, denoted shmooing (SSC-A) using a NovoCyte Quanteon flow cytometer (Agilent). Data represents means of median fluorescence intensity (mMFI) for three biological replicates and standard deviations hereof. Two-way ANOVA with Tukey's multiple comparisons test was conducted for all conditions."}, "CD19": {"test_system": "CD19", "assay": "Yeast surface display (YSD) of CD19, antibody staining and flow cytometry", "format": "cell-based, Saccharomyces cerevisiae", "details": "for fold upregulation of CD19 display relative to unstimulated condition: α-factor 0-100 μM, 20 hrs, promoter driving CD19 in DIX41 background", "description": "To investigate the different variants of CD19 modules, yeast cells were grown and, in some cases, stimulated to present CD19 differentially, whereafter they were stained with antibodies and assessed by flow cytometry. Flow cytometric measurement was done using a NovoCyte Quanteon flow cytometer (Agilent) to quantify CD19 by staining with mouse anti-CD19 (FMC63) (Absolute Antibody; Ab00613) and goat anti-mouse-AF647 (polyclonal) (Thermo Fisher; A-21236), detected in R667/30-H, as well as rabbit anti-HA (RM305) (Thermo Fisher; MA5-27915) and goat anti-rabbit-AF488 (polyclonal) (Thermo Fisher; A-11008), detected in B525/45-H (see FIG. 7), and to measure PRP-regulated morphological changes (SSC-H). […] Data represents means of median fluorescence intensity (mMFI) for three biological replicates and standard deviations hereof. Two-way ANOVA with multiple comparisons tests was conducted for all conditions. Histograms are representative replicates. No SSC-normalization was used in the evaluation of the effector module, unlike in Example 1, as it is the absolute response of all effects combined that constitute the total output that CAR T cells interpret and react to.\nFor conventional YSD using strain EBY100 and pCT-plasmid-based expression (Chao et al. 2006, Isolating and engineering human antibodies using yeast surface display. Nature Protocols, 1(2), 755-768), strains were pre-grown in SC −trp, then transferred to 5 mL SC −trp +2% Gal for induction of YSD or +2% Gluc as a negative control (24 hrs., 30° C., 250 r.p.m.). NALM6 was cultured in RPMI 1640 medium (ATCC modification) (Thermo Fisher) with 10% fetal bovine serum and 1% pen-strep (RPMI+10% FBS) at 37° C. with 5% CO2. For the investigation of PGAL1-titratability of DIX41 with pMAD58 and DIX74, strains were pre-grown in SC −ura and SC, respectively, then transferred to SC −ura and SC, respectively, with varying concentrations of galactose (0.0002%-2% Gal), using raffinose as compensating carbon source, and YSD was induced for 24 hrs. (30° C., 250 r.p.m.). Strains were similarly grown in 2% Gluc as negative controls. For the investigation of the strain library with constitutive and dynamically regulated expression of CD19 (Background strain/No YSD, PPGK1-Empty, PMFA2-CD19, PFUS1-CD19, PFIG.1-CD19, PMFA1-CD19, PHPF1-CD19, PTDH3-CD19, PPGK1-CD19) the strains were pre-grown in SC, whereafter, for each replicate, 50.000 cells were transferred to 300 μL volumes comprising a 10-fold dilution series of α-factor (0-100 μM) (GenScript) dissolved in SC+1% DMSO, and stimulated for 20 hrs. (30° C., 250 r.p.m.)."}}}
{"molecule": "α-factor (GenScript) (from UniProt P01149 90-102) (peptide)", "values": [{"measurement": "fold change of induction of yEGFP, SSC-normalized, promoter PFIG1, maximum at 100 µM α-factor", "setting": "[1]", "result": 129, "unit": "fold"}, {"measurement": "fold change of induction of yEGFP, SSC-normalized, promoter PHPF1", "setting": "[1]", "result": 0.62, "unit": "fold"}, {"measurement": "fold change of yEGFP, unnormalized, promoter PFIG1, 1 µM α-factor", "setting": "[1]", "result": 517, "unit": "fold"}, {"measurement": "fold change of yEGFP, unnormalized, promoter PFIG1, 100 µM α-factor", "setting": "[1]", "result": 483, "unit": "fold"}, {"measurement": "fold upregulation of CD19 display, promoter PFIG1, 20 hrs α-factor", "setting": "[1]", "result": 630, "unit": "fold"}, {"measurement": "fold upregulation of CD19 display, promoter PFUS1, 20 hrs α-factor", "setting": "[1]", "result": 774, "unit": "fold"}, {"measurement": "fold upregulation of CD19 display, promoter PTDH3", "setting": "[1]", "result": 3.1, "unit": "fold"}, {"measurement": "general PRP-induced expression boost of yEGFP after 5 hrs of GPCR stimulation", "setting": "[1]", "result": 4.01, "unit": "fold"}, {"measurement": "maximal fold change of CD19 display, promoters PHPF1, PTDH3 and PPGK1, lower end", "setting": "[1]", "result": "2.9 to 3.8", "unit": "fold"}, {"measurement": "maximal fold change of CD19 display, promoters PHPF1, PTDH3 and PPGK1, upper end", "setting": "[1]", "result": "2.9 to 3.8", "unit": "fold"}]}
{"molecule": "α-factor [reference compound]", "values": [{"measurement": "α-factor concentration at which shmooing (SSC-A) was most intense", "setting": "[2]; across all strains, 5 hrs", "result": "≥ 0.01", "unit": "µM"}, {"measurement": "α-factor concentration at which shmooing generally peaked", "setting": "[2]; across all strains, 5 hrs", "result": 1, "unit": "µM"}]}
{"molecule": "B1", "values": [{"measurement": "fold upregulation of CD19 display relative to unstimulated condition", "setting": "CD19", "result": "3.1±0.3", "unit": "fold"}, {"measurement": "change of absolute CD19 output on upregulation compared with that of PFUS1", "setting": "CD19; α-factor stimulation", "result": 150.2, "unit": "%"}]}
{"molecule": "B2", "values": [{"measurement": "CD19 level at unstimulated conditions", "setting": "CD19; no GPCR stimulation", "result": "extremely low levels of CD19 at the limit of detection"}, {"measurement": "fold upregulation of CD19 display relative to unstimulated condition", "setting": "CD19", "result": "774±165", "unit": "fold"}, {"measurement": "maximal absolute yEGFP output relative to orthogonal P6xLexOLEU2 ste12Δ0 strain", "setting": "[2]; PFUS1 STE12+ strain", "result": 4.2, "unit": "fold"}, {"measurement": "promoter strength relative to P6xLexOLEU2 at maximal induction", "setting": "[2]; SSC-normalized promoter activity", "result": 1.4, "unit": "fold"}]}
